Data on 29 sequences can be found in the supplement of paper PMC10567573.

A short description of this data set: protein stability index of a GFP-peptide fusion (GPS, HEK-293T) (PSI 1-6); higher = more stable.
The mark [1] stands for this setting: treatment: DMSO, c terminus: a fixed tail appended.
The mark [2] stands for this setting: treatment: MLN4924 1 uM, 8 h, c terminus: a fixed tail appended.

± gives the standard deviation.
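Also: 24-mer peptide tiles fused after GFP, lentivirally expressed, FACS-sorted into six equal bins by GFP/DsRed ratio, decoded by Illumina sequencing, PSI is the read-weighted mean bin number.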

Turning to KPKIEDVGSDEEDDSGKDKKKKTK [HSP90AB1], the protein stability index stood at 5.54 ± 0.24 under setting [1] and 5.56 ± 0.12 under setting [2].
For KPSFQSGGRRRPPASSRNRSPSGS [RBMY1A1], in that order: 4.93 ± 0.33 and 5.35 ± 0.32.
On to KRKKLSTWKQELLKLMDRHKKDCA [ZNF75A], for which the protein stability index came out at 2.7 ± 0.15 under setting [1] and 2.83 ± 0.21 under setting [2].
KSAILVPSEKKVAIIRTPPKSPAT [MAP2] had a protein stability index under setting [1] of 4.32 ± 0.14 and a protein stability index under setting [2] of 4.41 ± 0.1.
For KVRSLETENSALQLQVTEREEVRG [LMNB1], in that order: 5.22 ± 0.35 and 5.53 ± 0.15.
For KYKVHGKEILRTLQDVFCWLPLAT [PPEF2], in that order: 3.08 ± 0.62 and 3.3 ± 1.7.
Turning to LALCQRYYHRGHVDPANDTFDIDP [MCOLN1], the protein stability index reads like this: under setting [1], 3.11 ± 0.13; under setting [2], 3.23 ± 0.29.
With LASYLEKVRQLERDNAELEKLIQE [KRT34], the protein stability index worked out at 3.33 ± 0.22 under setting [1] and 3.5 ± 0.24 under setting [2].
For LAYYEVCSWKGATKQRIQDQKVPY [CHIT1], in that order: 2.71 ± 0.4 and 2.8 ± 0.37.
For LCGAGSEPSIAPTSCAGNLPSRPP [RSPH3], in that order: 4.36 ± 0.36 and 4.28 ± 0.21.
LDCADALLKAGADVNKTDHSQRTA [INVS]: the protein stability index is, setting by setting: under setting [1], 5.09 ± 0.38; under setting [2], 5.13 ± 0.43.
For LDKQAKLSRAYDGTTYLPGIVGLN [USP39], in that order: 3.15 ± 0.39 and 3.1 ± 0.2.
For LDMRRDHEEQLQRLKLLKDREVDA [FBF1], in that order: 5.08 ± 0.21 and 4.91 ± 0.3.
Regarding LDNLLAFVCDIRPEIHENYRING [ATP6V1G1], the protein stability index reads like this: (treatment: DMSO, c terminus: native) 2.27 ± 0.49; (treatment: MLN4924 1 uM, 8 h, c terminus: native) 2.47 ± 0.21.
As to LDSVSPCPSSPKQIHLDVDNDRTT [DLC1], the protein stability index was found to be 5.37 ± 0.13 under setting [1] and 5.55 ± 0.099 under setting [2].
Sequence LEALLEAAGIGKLSTADGKAFADP [ANKRD17] showed a protein stability index under setting [1] of 3.42 ± 0.38 and a protein stability index under setting [2] of 3.31 ± 0.15.
Regarding LEATVKKLEESKQLLKNNEKLITW [SASS6], the protein stability index runs as follows: under setting [1], 2.73 ± 1.2; under setting [2], 3.44 ± 0.62.
For LEQFVAILPKELQTWVRDHHPENG [ZNF24], the protein stability index is, setting by setting: under setting [1], 3.2 ± 0.1; under setting [2], 3.23 ± 0.21.
For LESEGSPETLTNLRKGYLFMYNLV [HACD3], in that order: 2.02 ± 0.2 and 1.97 ± 0.27.
Turning to LESLQDGAAESPYAYSNGIDYKTT [RAB40C], the protein stability index runs as follows: under setting [1], 4.29 ± 0.34; under setting [2], 4.5 ± 0.16.
For LEVKIRDWYQRQRPSEIKDYSPYF [KRT16], in that order: 2.19 ± 0.2 and 2.24 ± 0.49.
For LEWHDSLFQILSERQDMYQCLVEG [ZNF511], in that order: 2.42 ± 0.24 and 2.43 ± 0.29.
LFTSFQEPPCEGNTFFCHSNMCIN [NETO1]: the protein stability index reads like this: under setting [1], 2.14 ± 0.42; under setting [2], 2.13 ± 0.41.
For LGAGGGSLLPGAVEQPQPQFISRF [NEK8], in that order: 3.14 ± 0.21 and 3.32 ± 0.46.
For LGGEDGEKELISMECYDIYSKTWT [GAN], in that order: 3.31 ± 0.45 and 3.19 ± 0.24.
For LGSPYGQPPRFPVPHNGSSEATLP [PDLIM4], in that order: 4.52 ± 0.31 and 4.6 ± 0.22.
As to LGVYSALREIAFTRQLHEKTSQLS [ATE1], the protein stability index was determined as 2.59 ± 0.71 under setting [1] and 2.4 ± 0.69 under setting [2].
For LGYLLLGAATNVFLFVLARVPAGI [MFSD9], in that order: 3.29 ± 0.69 and 2.94 ± 0.4.
For LHLESELAQTRAEGQRQAQEYEAL [KRT18], in that order: 5.07 ± 0.2 and 5.08 ± 0.26.
